Stoichiometry N (FBXO22-SKP1 per BACH1 BTB dimer) data for one substance are collected here from article PMC11682927.

The experiment deals with His-BACH1-BTB (amino acids 7-128) (human) (UniProt O14867). The experiment in a line: SEC-MALS.
Chain of His-BACH1-BTB (amino acids 7-128) (human) (O14867 7-128): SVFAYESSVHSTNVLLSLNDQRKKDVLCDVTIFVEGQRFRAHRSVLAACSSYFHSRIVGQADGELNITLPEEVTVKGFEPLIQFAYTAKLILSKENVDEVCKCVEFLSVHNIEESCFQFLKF

Chain of Tag-free FBXO22-SKP1 complex (Q8NEZ5 whole entry): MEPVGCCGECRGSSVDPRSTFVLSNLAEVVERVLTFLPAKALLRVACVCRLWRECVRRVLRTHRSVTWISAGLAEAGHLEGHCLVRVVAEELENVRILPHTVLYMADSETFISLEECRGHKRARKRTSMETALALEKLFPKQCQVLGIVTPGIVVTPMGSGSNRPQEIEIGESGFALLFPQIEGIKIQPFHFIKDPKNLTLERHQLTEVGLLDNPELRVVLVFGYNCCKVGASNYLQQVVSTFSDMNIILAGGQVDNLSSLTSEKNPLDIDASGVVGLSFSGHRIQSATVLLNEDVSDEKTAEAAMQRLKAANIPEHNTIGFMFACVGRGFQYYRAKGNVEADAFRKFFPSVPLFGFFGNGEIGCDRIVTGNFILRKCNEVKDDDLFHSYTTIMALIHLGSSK
Chain of Tag-free FBXO22-SKP1 complex (P63208 whole entry): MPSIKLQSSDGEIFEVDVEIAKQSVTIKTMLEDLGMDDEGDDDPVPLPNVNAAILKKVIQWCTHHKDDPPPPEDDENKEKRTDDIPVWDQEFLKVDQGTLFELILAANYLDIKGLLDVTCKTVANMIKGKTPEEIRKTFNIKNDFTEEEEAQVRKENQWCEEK

In turn, “Tag-free FBXO22-SKP1 complex (from UniProt Q8NEZ5 1-403; P63208 1-163)” had a stoichiometry N (FBXO22-SKP1 per BACH1 BTB dimer) of 1.
